Results on three molecules are retold here after article PMC10239695.

Test [1] addresses IBSSαγ complex.
Substrate in test [2]: T1, BSSαγ complex (UniProt O68395)
T1 sequence 1: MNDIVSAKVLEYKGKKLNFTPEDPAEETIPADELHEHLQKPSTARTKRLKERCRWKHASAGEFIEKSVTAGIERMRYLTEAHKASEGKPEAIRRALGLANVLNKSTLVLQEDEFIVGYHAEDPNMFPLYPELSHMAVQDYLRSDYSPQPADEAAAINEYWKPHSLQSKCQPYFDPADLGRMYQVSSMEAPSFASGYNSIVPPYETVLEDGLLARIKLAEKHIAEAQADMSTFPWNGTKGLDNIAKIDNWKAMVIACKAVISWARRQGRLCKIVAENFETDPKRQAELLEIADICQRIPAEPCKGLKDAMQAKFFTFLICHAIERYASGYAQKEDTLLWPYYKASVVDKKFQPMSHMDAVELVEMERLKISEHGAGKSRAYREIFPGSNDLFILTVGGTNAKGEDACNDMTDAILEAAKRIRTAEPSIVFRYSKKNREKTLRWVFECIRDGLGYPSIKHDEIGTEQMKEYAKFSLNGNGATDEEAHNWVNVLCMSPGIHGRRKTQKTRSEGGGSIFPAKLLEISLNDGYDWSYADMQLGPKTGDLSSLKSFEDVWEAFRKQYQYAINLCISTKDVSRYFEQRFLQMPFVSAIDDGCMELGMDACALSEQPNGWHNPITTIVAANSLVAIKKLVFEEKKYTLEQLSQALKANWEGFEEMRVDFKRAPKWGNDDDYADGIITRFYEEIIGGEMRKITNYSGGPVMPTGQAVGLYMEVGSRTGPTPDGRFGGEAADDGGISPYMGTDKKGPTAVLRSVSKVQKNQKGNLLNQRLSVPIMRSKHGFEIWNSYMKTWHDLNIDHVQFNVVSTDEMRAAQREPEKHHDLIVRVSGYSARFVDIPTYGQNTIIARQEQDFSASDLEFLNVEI
T1 sequence 2: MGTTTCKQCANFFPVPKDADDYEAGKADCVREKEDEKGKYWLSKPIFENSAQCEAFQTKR

In test [1], “4-isopropylbenzylsuccinate synthase activating enzyme (IbsAE)” returned an AdoMet cleavage by as purified IbsAE with IBSSαγ added (dAdo by LCMS, 2 h endpoint, n = 3); 1.1 μM dAdo without IBSSαγ of 47.6 μM dAdo and an AdoMet cleavage by reconstituted IbsAE with IBSSαγ added (dAdo by LCMS, 2 h endpoint, n = 3); 1.4 μM dAdo without IBSSαγ of 46.7 μM dAdo.
In the case of “4-isopropylbenzylsuccinate synthase beta subunit (IBSSβ), affinity tag removed (from UniProt A0A096ZP03 1-73) (natural protein)”, in test [1], the AdoMet cleavage by as purified IbsAE with IBSSαγ and IBSSβ added (dAdo by LCMS, 2 h endpoint, n = 3); 47.6 μM dAdo without IBSSβ was 7.2 μM dAdo; the AdoMet cleavage by reconstituted IbsAE with IBSSαγ and IBSSβ added (dAdo by LCMS, 2 h endpoint, n = 3); 46.7 μM dAdo without IBSSβ worked out at 5.4 μM dAdo.

B1: Benzylsuccinate synthase beta subunit (BSSβ), affinity tag removed (natural protein)
chain: MEGSNMETGQNLQNQPHTEVGTARPCRSCKWQTPDPTDPHRGQCTANRHAMGGVWKRWLRDVENTTCSRHEEGKLSFRDHV
With B1, the benzylsuccinate formed from fumarate and toluene by activated BSSαγ (40 μM) with BSSβ (40 μM) added (assay yield by QToF-LCMS, n = 9); 0.7% without BSSβ (% assay yield) in test [2] stood at 92.3.
